Data published in US20220306762A1 (CRYSTAL BIOSCIENCE, published 2022).

B1: 40769p1.1.G12 (scFv, V domains shown)
VH: EVQLLESGGGLVQPGGSLRLSCAASGFTFDDYVMSWVRQAPGKGLEWVSEISESDGSNKYYADSVKGRFIISRDNSKNTLYLQMNSLRAEDTAVYYCARLEPEKYYGMDVWGQGTTVTVSS
VL: QSVLTQPPSASGTPGQRVTISCSGSNSNIGNNLVSWYQQLPGTAPKLLIYRHDHRPSGVPDRFSGSKSGTSASLAISGLQSEDEADYYCATWDDSLNGRAFGGGTKLTVL
notes: tested as scFv-Fc supernatant
B2: 40769p1.1.H10 (scFv, V domains shown)
VH: EVQLLESGGGLVQPGGSLRLSCAAFGFTFSDYEMNWVRQAPGKGLEWVSSISITGSWTGYADSVKGRFTISRDNSKNTLYLQMNNLRAEDTAVYYCANYKSYYGMDVWGQGTTVTVSS
VL: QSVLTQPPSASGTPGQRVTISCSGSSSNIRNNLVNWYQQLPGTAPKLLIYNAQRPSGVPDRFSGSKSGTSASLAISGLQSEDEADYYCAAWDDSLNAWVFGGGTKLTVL
notes: tested as scFv-Fc supernatant
B3: 40769p1.1.H1 (scFv, V domains shown)
VH: EVQLLESGGGLVQPGGSLRLSCAASGFTFSDYWMNWVRQAPGKGLEWVSTISSGGSMIYHADSVKGRFTISRDNSKNTLYLQMNSLRPEDTAVYYCAKDNWNDYYGMDVWGQGTTVTVSS
VL: QSVLTQPPSASGTPGQRVNISCSGSSSNIRYNYVYWYQQVPGTAPKLLIYKDDQRPSGVPDRFSGSKSGTSASLAISELQSEDEADYYCATWDGSLNARVFGGGTKLTVL
notes: tested as scFv-Fc supernatant
B4: 40566p1.A8 (scFv, V domains shown)
VH: DVQLVESGGGVVRPGESLRLSCAASGFTFDNYDMTWVRQAPGEGLEWVSFISSRGTFTYYTDSVKGRFTISRDNSKNTLYLQMNSLRAEDTAIYYCAKDSGEYYFFDYWGLGTLVTVSS
VL: EIVMTQSPATLSVSPGERATFSCRASQSVNSKLAWYQQKPGQAPRLLIYGASRRATGIPDRFSGSGSGTEFTLTISSLQSEDFAVYYCQQYYDWPPLTFGGGTKVEIK
notes: tested as scFv-Fc supernatant
B5: 40566p1.G9 (scFv, V domains shown)
VH: DVQLVESGGGVVRPGESLRLSCAASGFTFDNYDMTWVRQAPGEGLEWVSFISSRGTFTYYADSVKGRFTISRDNSKNTLYLQMNSLRAEDTAIYYCAKDSGEYYFFDYWGLGTLVTVSS
VL: EIVMTQSPATLSVSPGERATFSCRASQSVNSKLAWYQQKPGQAPRLLIYGASRRATGIPDRFSGSGSGTEFTLTISSLQSEDFAVYYCQQYYDWPPLTFGGGTKVEIK
notes: tested as scFv-Fc supernatant
B6: 40566p1.A12 (scFv, V domains shown)
VH: DVQLVESGGGVVRPGESLRLSCAASGFTFDNYDMTWVRQAPGEGLEWVSFISSRGTFTYYTDSVKGRFTISRDNSKNTLYLQMNSLRAEDTAIYYCTKDSGEYYFFDYWGLGTLVTVSS
VL: EIVMTQSPATLSVSPGERATFSCRASQSVNSKLAWYQQKPGQAPRLLIYDASRRATGIPDRFSGSGSGTEFTLTISSLQSEDFAVYYCQQYYDWPPLTFGGGTKVEIK
notes: tested as scFv-Fc supernatant; also called 40566p1.Al2
B7: 40566p1.G12 (scFv, V domains shown)
VH: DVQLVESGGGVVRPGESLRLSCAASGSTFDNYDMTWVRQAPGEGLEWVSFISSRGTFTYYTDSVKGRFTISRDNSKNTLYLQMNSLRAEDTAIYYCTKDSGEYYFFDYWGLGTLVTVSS
VL: EIVMTQSPATLSVSPGERATFSCRASQSVNSKLAWYQQKPGQAPRLLIYDASRRATGIPDRFSGSGSGTEFTLTISSLQSEDFAVYYCQQYYDWPPLTFGGGTKVEIK
notes: tested as scFv-Fc supernatant
B8: 40566p1.A9 (scFv, V domains shown)
VH: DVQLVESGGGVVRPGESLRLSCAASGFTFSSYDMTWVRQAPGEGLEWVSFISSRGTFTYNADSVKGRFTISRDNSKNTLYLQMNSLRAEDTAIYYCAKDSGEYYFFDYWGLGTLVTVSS
VL: EIVMMQSPATLSVSPGERATFSCRASQSVNSKLAWYQQKPGQAPRLLIYGASRRATGIPDRFSGSGSGTEFTLTISSLQSEDFAVYYCQQYYDWPPLTFGGGTKVEIK
notes: tested as scFv-Fc supernatant
B9: 40566p1.B12 (scFv, V domains shown)
VH: DVQLVESGGGVVRPGESLRLSCAASGFTFDNYDMTWVRQAPGEGLEWVSFISSRGIFTYYADSVKGRFTISRDNSKNTLYLQMNSLRAEDTAIYYCAKDSGEYYFFDYWGLGTLVTVSS
VL: EIVMTQSPATLSVSPGERATFSCRASQSVNSKLAWYQQKPGQAPRLLIYGASRRATGIPDRFSGSGSGTEFTLTISSLQSEDFAVYYCQQYYDWPPLTFGGGTKVEIK
notes: tested as scFv-Fc supernatant
B10: 40566p1.D12 (scFv, V domains shown)
VH: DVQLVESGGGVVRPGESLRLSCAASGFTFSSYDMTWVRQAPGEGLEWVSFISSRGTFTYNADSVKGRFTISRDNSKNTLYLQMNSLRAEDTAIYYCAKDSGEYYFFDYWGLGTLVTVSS
VL: EIVMTQSPATLSVSPGERATFSCRASQSVNSKLAWYQQKPGQAPRLLIYGASRRATGIPDRFSGSGSGTEFTLTISSLQSEDFAVYYCQQYYDWPPLTFGGGTKVEIK
notes: tested as scFv-Fc supernatant
B11: 40566p1.C11 (scFv, V domains shown)
VH: DVQLVESGGGVVRPGESLRLSCAASGFTFDNYDMTWVRQAPGEGLEWVSFISSRGTFTYYTDSVKGRFTISRDNSKNTLYLQMNSLRAEDTAIYYCTKDSGEYYFFDYWGLGTLVTVSS
VL: EIVLTQSPGTLSLSPGERATLSCRASQTVGSKLAWYQQKPGQAPRLLIFSASSRATGIPARFSGSGSGTEFTLTISSLQSEDFAVYYCQQYYDWPPLTFGGGTKVEIK
notes: tested as scFv-Fc supernatant
B12: 40769p1.1.B12 (scFv, V domains shown)
VH: EVQLLESGGGLIQPGGSLRLSCTASGFDFSSYGMHWVRQAPGKGLEWVGIISDSGGTTYYADSVKGRFTISRDNSKNTMYLQMNSLRAEDTALYYCASYIMDVWGQGITVTVSS
VL: QSVLTQPPSASGTPGQRVTISCSGSSSNVGGNSVYWYQQLPGTAPKLLFYGNHRRPSGVPDRFSGSKSGTSASLAISGLQSEDEADYYCAVWDDSLNAWVFGGGTKLTVL
notes: tested as scFv-Fc supernatant

What was measured:
[1] = biological target: T1, His-tagged cynomolgus monkey CD38 (ACRO Biosystems cat #CD8-05223) (cynomolgus monkey, UniProt Q5VAN0 43-301); experiment: SPR, captured scFv-Fc, His-CD38 analyte;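 further: SPR on a Carterra LSA, scFv-Fc captured by anti-human Fc on HC30M chip, His-tagged CD38 (human, mouse, cynomolgus) flowed as analyte in eight 1:2 steps from 400 nM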
T1 construct: bought recombinant protein with His tag

[2] = biological target: T2, His-tagged human CD38 (ACRO Biosystems cat #CD8-H5224) (human, UniProt P28907 43-300); experiment: SPR, captured scFv-Fc, His-CD38 analyte;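 further: SPR on a Carterra LSA, scFv-Fc captured by anti-human Fc on HC30M chip, His-tagged CD38 (human, mouse, cynomolgus) flowed as analyte in eight 1:2 steps from 400 nM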
T2 construct: bought recombinant protein with His tag

[3] = biological target: T3, human CD38 on transiently transfected Expi293 cells (Origene #SC321273) (human, UniProt P28907 1-300); experiment: flow cytometry, transfected Expi293 cells;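 further: antibody binding to Expi293 cells transiently expressing human or murine CD38, antibodies applied at 10 ug/ml for 60 min on ice, read by flow cytometry as percent gated cells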
T3 construct: whole, on cells; also called Human (FACs)

[4] = biological target: T4, murine CD38 on transiently transfected Expi293 cells (Origene MC208001) (murine, UniProt P56528 1-304); experiment: flow cytometry, transfected Expi293 cells;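 further: antibody binding to Expi293 cells transiently expressing human or murine CD38, antibodies applied at 10 ug/ml for 60 min on ice, read by flow cytometry as percent gated cells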
T4 construct: whole, on cells; also called Murine (FACs)
T4 sequence (looked up): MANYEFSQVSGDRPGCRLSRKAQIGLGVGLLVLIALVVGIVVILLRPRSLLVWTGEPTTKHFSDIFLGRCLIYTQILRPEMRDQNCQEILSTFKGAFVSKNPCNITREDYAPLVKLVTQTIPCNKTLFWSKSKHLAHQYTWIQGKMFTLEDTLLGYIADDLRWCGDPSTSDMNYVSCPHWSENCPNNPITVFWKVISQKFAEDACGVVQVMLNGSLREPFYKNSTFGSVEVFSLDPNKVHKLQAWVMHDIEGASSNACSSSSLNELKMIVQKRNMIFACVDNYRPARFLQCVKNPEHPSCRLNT

[5] = biological target: T5, His-tagged mouse CD38 (ACRO Biosystems #CD8-M5223) (mouse, UniProt P56528 45-304); experiment: ELISA, coated His-CD38
T5 construct: bought recombinant protein with His tag; also called Murine
T5 sequence (looked up): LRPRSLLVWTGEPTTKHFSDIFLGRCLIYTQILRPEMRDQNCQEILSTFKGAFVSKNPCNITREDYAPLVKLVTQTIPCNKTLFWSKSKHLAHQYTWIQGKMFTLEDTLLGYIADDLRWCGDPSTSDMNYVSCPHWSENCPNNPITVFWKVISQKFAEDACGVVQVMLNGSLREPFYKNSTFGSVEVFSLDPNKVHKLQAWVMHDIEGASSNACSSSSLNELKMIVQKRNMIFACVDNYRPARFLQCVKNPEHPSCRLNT

[6] = biological target: T1, His-tagged cynomolgus monkey CD38 (ACRO …); experiment: ELISA, coated His-CD38
[7] = biological target: T2, His-tagged human CD38 (ACRO Biosystems …); experiment: ELISA, coated His-CD38
[8] = biological target: T5, His-tagged mouse CD38 (ACRO Biosystems …); experiment: SPR, captured scFv-Fc, His-CD38 analyte;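 further: SPR on a Carterra LSA, scFv-Fc captured by anti-human Fc on HC30M chip, His-tagged CD38 (human, mouse, cynomolgus) flowed as analyte in eight 1:2 steps from 400 nM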

Kd [1] [nM] | Kd [2] [nM] | FACs 10 ug/ml (percent gated) [3] [%] | FACs 10 ug/ml (percent gated) [4] [%] | ELISA 1 ug/ml [5] | ELISA 1 ug/ml [6] | ELISA 1 ug/ml [7] | Kd [8] [nM] | Binder
11.4 | 1.88 | 68.4 | 0.16 | 0.056 | 1.08 | 1.45 | – | B1
2.85 | 1.95 | 79 | 0.12 | 0.048 | 1.96 | 1.7 | – | B2
59.5 | 85.7 | 76.2 | 3.13 | 0.049 | 2.05 | 1.86 | – | B3
– | 0.872 | 17.8 | 70.8 | 1.9 | 1.9 | 1.87 | 5.81 | B4
– | – | 17.8 | 70.7 | 1.93 | 1.86 | 1.82 | 4.8 | B5
– | – | 25.2 | 72.6 | 1.99 | 1.89 | 1.98 | 1.03 | B6
– | – | 7.52 | 68.5 | 1.65 | 1.62 | 1.58 | 2.07 | B7
– | – | 19.1 | 75.9 | 2.02 | 1.88 | 1.87 | 0.918 | B8
– | 470000 | 8.31 | 57.7 | 1.62 | 1.6 | 1.72 | 25.6 | B9
– | – | 20.8 | 74.8 | 1.83 | 1.96 | 1.98 | 0.967 | B10
– | – | 11.9 | 64.5 | 1.6 | 1.7 | 1.87 | 1.97 | B11
135 | 32.4 | 71.1 | 31.9 | 0.472 | 1.91 | 1.56 | – | B12
